The record followed here is patent US20050112063A1, “Methods for inhibiting vascular permeability” (priority 2002, published 2005).

Entries after “also recorded” stand apart in the source; their conditions may differ.

For test [1], the system named is Bovine adrenal capillary endothelial cells. Description: BCE proliferation assay. It counts as cell-based. Particulars: challenged with bFGF, 72 h; data not shown. The protocol: Bovine adrenal capillary endothelial cells were seeded on gelatinized plates (15,000/well). Following 24 h incubation, cells were challenged with free and conjugated TNP-470, and bFGF (1 ng/ml) was added to the medium. Cells were counted after 72 h.

Test [2] has as its system Aortic arches from day-14 chick embryos. Description: Chick aortic ring assay. In kind it is cell-based. As for the experimental part: Aortic arches were dissected from day-14 chick embryos and cut into cross-sectional fragments, everted to expose the endothelium, and explanted in Matrigel. When cultured in serum-free MCDB-131 medium, endothelial cells outgrow and three-dimensional vascular channel formation occurred within […]. Free and conjugated TNP-470 were added to the culture.

Test [3] has as its system Mice. Description: Miles assay (induced vessel permeability). It counts as in vivo. The protocol:
One of the problems with angiogenesis-dependent diseases is increased vessel permeability (due to high levels of VPF) which results in edema and loss of proteins. A decrease in vessel permeability is beneficial in those diseases. […] Briefly, a dye, Evans Blue (1% in PBS), was injected i.v. to anesthesized mice. After 10 min, human recombinant VEGF165 (50 ng/50 μl) was injected intradermally into the back skin. Leakage of protein-bound dye was detected as blue spots on the underside of the back skin surrounding the injection site. After 20 min mice were euthanized. Then, the skin was excised, left in formamide for 5 days to be extracted and the solution read at 620 nm. Putative angiogenesis inhibitors such as free and conjugated TNP-470 were injected daily 3 days (30 mg/kg/day) prior to the VEGF challenge. The same was repeated on tumor-bearing mice to evaluate the effect of angiogenesis inhibitors on tumor vessel permeability.

In test [4] the test system is A2058 human melanoma-bearing mice. As to the kind of experiment: Miles assay on tumor-bearing mice (tumor vessel permeability). The following applies: 30 mg/kg/day for three days. In kind it is in vivo. As for the experimental part:
One of the problems with angiogenesis-dependent diseases is increased vessel permeability (due to high levels of VPF) which results in edema and loss of proteins. A decrease in vessel permeability is beneficial in those diseases. We have found, using the Miles assay ([…], et al., Cancer Res, 56:172-181 (1996)), that free and bound TNP-470 block permeability. Briefly, a dye, Evans Blue (1% in PBS), was injected i.v. to anesthesized mice. After 10 min, human recombinant VEGF165 (50 ng/50 μl) was injected intradermally into the back skin. Leakage of protein-bound dye was detected as blue spots on the underside of the back skin surrounding the injection site. After 20 min mice were euthanized. Then, the skin was excised, left in formamide for 5 days to be extracted and the solution read at 620 nm. Putative angiogenesis inhibitors such as free and conjugated TNP-470 were injected daily 3 days (30 mg/kg/day) prior to the VEGF challenge. The same was repeated on tumor-bearing mice to evaluate the effect of angiogenesis inhibitors on tumor vessel permeability.

The test system of another test is lungs. As to the kind of experiment: IL-2 induced pulmonary edema, relative weight of the lungs. Particulars: 3 days treatment, edema induced with IL-2 i.m. (FIG. 12). It counts as in vivo.
The next test relates to FVB/NJ mice. As to the kind of experiment: Evans Blue dye extravasation in skin after intradermal VEGF. In kind it is in vivo. As for the experimental part: (§1) The antiangiogenic factor (endostatin) was injected intraperitoneally to FVB/NJ mice for 4 days. Immediately after the last injection, mice were anasthesized and received intravenous injection of 100 μl Evans Blue dye (1% in PBS). Subsequently, different amounts of VEGF165, VEGF121 or saline were injected intradermaly. After 20 minutes, mice were sacrificed and skin flap from the back was removed and photographed. Skin samples from the injection sites were excised and incubated in formamide for 5 days in order to extract the dye and O.D. was measured at 620 nm. […] Quantitative analysis of Evans Blue dye extravasation (FIG. 1) confirmed the lower skin capillary permeability of the antiangiogenic factor-treated mice and indicated the weak permeability-inducing effect of VEGF in these mice.

A further test relates to Nude mice. Description: Evans Blue dye extravasation in skin after intradermal PAF. In kind it is in vivo. The protocol:
as §1
In order to test if the effects of the antiangiogenic factor (endostatin) on vascular permeability is VEGF-specific, we have tested the effects of intradermal injection of platelet-activating factor (PAF) in Nude mice that were previously injected with the antiangiogenic factor and in control mice, as described above. […] Quantitative analysis of Evans Blue dye extravasation (FIG. 2) confirmed the lower skin capillary permeability of the antiangiogenic factor-treated mice compared with control and the lack of PAF-induced hyperpermeability in these mice. […]

The subject of the next test is mice (SCID). As to the kind of experiment: Duration of exposure: Alzet pump, skin vessel permeability with Evans Blue. In kind it is in vivo. The protocol: In order to test if continuous exposure to the antiangiogenic factor (endostatin) is required to repress blood vessel permeability, mice (SCID) were anesthetized and “Alzet” pumps loaded with the antiangiogenic factor or saline were implanted intraperitoneally. The pumps release 1 μl the antiangiogenic factor per hour. Skin vessel permeability using Evans Blue dye was performed as described above. Saline and the antiangiogenic factor treated mice were examined 2, 3 and 4 days after pump implantation, as described above (FIG. 3). […] In both groups, PAF injection induced higher vessel permeability than saline injection. […] However, in both groups PAF injection induced higher vessel permeability than saline injection. […] Since the tumor vessels are continuously permeabilized and plasma proteins contained within the tumor support its vascularization the anti-permeability effect of the antiangiogenic factor offers a possible mechanism for its anti-tumor activity.

The test system of test [5] is Bovine capillary endothelial cells (BCE). Description: In vitro diffusion of FITC-dextran through endothelial cell monolayer (Transwells). In kind it is cell-based. As for the experimental part:
The effects of the antiangiogenic factor (endostatin) on skin vessel permeability in vivo were tested in an in vitro diffusion model designed to mimic blood vessel permeability. Bovine capillary endothelial cells (BCE) were seeded in collagen coated inserts of “Transwells” and grown to confluence. The antiangiogenic factor was added every 24 hours. Four days later the inserts were washed with BCE culture medium and the following tracers and permeability regulators were added to the inserts. Half of the inserts received 5 mg/ml FITC-labeled dextran 10 kDa and the other half received 5 mg/ml FITC-labeled dextran 70 kDa. In addition, some inserts received 50 ng/ml VEGF165 or 100 nM PAF. Control inserts received BCE culture medium with fluorescent tracers only. The fluorescence in the lower wells was measured after 10, 20, 30, 45 and 60 minutes by transferring the inserts into new wells.
In order to follow the kinetic of the diffusion process, the flow of the tracer was calculated as fluorescent counts per minute (FIGS. 5 and 6). […] In contrast, the flow in control cells was constant and was lower than that observed in PAF and VEGF165-treated cells.

The subject of test [6] is Mice. Description: Swelling of lung tissue in mice injected with micro-encapsulated VEGF-producing cells. In kind it is in vivo. Particulars: VEGF producing cells together with endostatin producing cells, 5 days. The text has this: Dilation of the lung tissue may result in lung dysfunction and development of pulmonary hypertension. Mice injected with micro-encapsulated cells producing VEGF (approximately 0.5×10^6 cells per mouse) developed thickened lung parenchyma 5 days after injection. At a higher magnification we observed generation of several cell layers between the alveoli compared with one layer of cells in mice injected with micro-encapsulated control cells or with micro-encapsulated cells producing endostatin (Endost). […] Moreover, treatment with endostatin reduced the number of cell layers between the alveoli and the lungs of mice that were treated with endostatin appeared similar to control mice. Therefore, endostatin appears to block the swelling of lung tissue and may be used for treatment of pulmonary hypertension.

For test [7], the system named is Bovine capillary endothelial cells (BCE). As to the kind of experiment: Immunostaining of tight junction proteins (β-catenin, occludin, ZO-1). It counts as cell-based. As for the experimental part: Bovine capillary endothelial cells (BCE) were cultured in the presence of 0.2, 0.5 and 2 μg/ml human endostatin for three days. The cells were fixed and immunostained with anti-β-catenin, occludin, and ZO-1 antibodies (Zymed Laboratories, CA). The staining was developed using FITC-conjugated secondary antibodies and visualized under fluorescent microscopy. Immunostaining for β-catenin marked the cell borders and was more intense when two cells contacted each other. […] There was no difference in β-catenin staining between 0.5 and 2.0 μg/ml endostatin. […] Similar results were obtained with ZO-1 immunostaining. […] This is the first documentation of the effects of endostatin on tight junctions that may explain, in part, the mechanism of its antiangiogenic activities. Similar experiments were performed in which BCE were incubated in the presence and absence of 0.5 μg/ml endostatin for 3 days followed by stimulation with PAF for 20 minutes. The cells were fixed and immunostained with anti-α-catenin, occludin, and ZO-1 antibodies (Zymed Laboratories, CA), as described above.

In the next test the test system is Humans. Description: Histamine-induced wheal and flare test in skin. It counts as in vivo. The following applies: intradermal histamine. As for the experimental part: Antiangiogenic treatment has entered into clinical trials recently. Molecules that are tested in phase 1 and 2 clinical trials include endostatin, angiostatin, TNP-470, thalidomide, anti-VEGF antibodies, PTK787, SU-5416, SU-6668 and others. […] Mice that received endostatin for several days had lower diffusion of Evans blue from the skin capillaries in response to intradermal VEGF and PAF injection compared with normal mice. The existing test of histamine-induced wheal and flare in skin can be used in order to test bioactivity of endostatin and other antiangiogenic factors. Intradermal injection of histamine leads to the formation of local adema ([…]) due to blood vessel hyperpermiability. […] This test will serve as an early surrogate marker for the bioactivity of endostatin and other antiangiogenic factors and help to determine the treatment's efficiency in individual patients.

For the molecule `CO[C@@H]1[C@H](OC(=O)NC(=O)CCl)CC[C@]2(CO2)[C@H]1[C@@]1(C)O[C@@H]1CC=C(C)C` [TNP-470], the BCE cell growth result in test [1] is “inhibited”. Also, the “concentration that showed efficacy (reduced number and length of vascular sprouts)” value in [2] amounted to 50 pg/mL. The “VEGF, PAF and histamine-induced vascular leakage” value in the test with Mice [3] (Miles assay, compared to control (FIGS. 8A-8E)) was “prevents”. In test [4], the tumor vessel permeability result is “decreased”. The “pulmonary edema (relative weight of the lungs)” value in the test on lungs is on record as “reduces pulmonary edema”.

As to `O=C1CCC(N2C(=O)c3ccccc3C2=O)C(=O)N1` (centres unmarked) [Thalidomide], the vessel permeability entry in the test on Mice [3] (FIGS. 9A-9D) is given as “no effect”.

B1: endostatin (protein, UniProt P39060 1572-1754, looked up)
Endostatin: HSHRDFQPVLHLVALNSPLSGGMRGIRGADFQCFQQARAVGLAGTFRAFLSSRLQDLYSIVRRADRAAVPIVNLKDELLFPSWEALFSGSEGPLKPGARIFSFDGKDVLRHPTWPQKSVWHGSDPNGRRLTESYCETWRTEAPSATGQASSLLGGRLLGQSAASCHHAYIVLCIENSFMTASK
modifications: Endostatin
notes: antiangiogenic factor; human endostatin used on BCE cells
Turning to B1, the “Evans Blue dye leakage (skin capillary permeability)” value in the test on FVB/NJ mice (injected intraperitoneally for 4 days, vs control) was “overall lower dye leakage than the control”. In addition, in the test on FVB/NJ mice (intradermal VEGF165 or VEGF121, 4 days treatment), the “induction of hyperpermeability by VEGF injection” value is on record as “minor induction of hyperpermeability”. Further, the PAF-induced vascular permeability entry in the test on Nude mice (intradermal PAF) was “repressed”. For the same molecule, in the test with Nude mice (vs control), the “vascular permeability (skin flaps, Evans Blue)” value is reported as “inhibits vascular permeability”. In addition, in the test on mice (SCID) (Alzet pump intraperitoneally), the “treatment time required to reduce skin vessel permeability” value is given as “at least 3 days”. Further, the “blood vessel permeability in response to PAF, saline vs treated mice” value in the test on mice (SCID) (day two after pump implantation) is “no significant difference”. In addition, the “vessel permeability in saline treated mice compared with treated mice” value in the test on mice (SCID) (days three and four, saline and PAF injections) is recorded as “significantly higher vessel permeability than in the antiangiogenic factor treated mice”. In [5] (10 kDa and 70 kDa dextrans, vs control cells), the “flow of the tracer (fluorescent counts per minute)” value is “significant reduced flow; also recorded: lower than that of control cells”. Also, the “course of tracer flow over time” value in [5] (60 minutes period) is recorded as “constant flow”. Besides, the “sum of fluorescent count over 60 minutes” value in test [5] (4 days pre-treatment, vs control, VEGF165-treated and PAF-treated cells, 10 kDa and 70 kDa dextran) is listed as “significantly lower fluorescent counts”. In addition, the “reduction in fluorescent counts, 70 kDa compared with 10 kDa dextran” value in test [5] (pre-treated BCE cells) is listed as “more pronounced in the diffusion of 70 kDa dextran”. Besides, in the test on Mice [6], the “accumulation of extracellular matrix in lung tissue” value is recorded as “no accumulation of extracellular matrix” and the “cell layers between the alveoli” value was “fewer cell layers”. For the same molecule, in [7] (0.5 μg/ml for 3 days, then PAF for 20 minutes), the “PAF-induced reduction of staining intensity of β-catenin, occludin and ZO-1” value is reported as “not in endostatin-treated cells”. In addition, the ZO-1 immunostaining result in [7] (0.2-2.0 μg/ml, three days) is “Cells boundaries were only visible in the presence”. Also, the “β-catenin staining, 0.5 versus 2.0 μg/ml” value in test [7] (three days) is given as “no difference”. For the same molecule, the “histamine-induced zone of edema” value in the test on Humans is on record as “reduced zone of edema”.
